Experimental findings from paper PMC3758141, “Structural analysis of DNA–protein complexes regulating the restriction–modification system Esp1396I” (Acta Crystallographica Section F: Structural Biology and …, 2013) are described below.

Data set [1] concerns the molecule itself. The experiment in a line: crystal structure; co-crystal of C.Esp1396I with the 19 bp OR DNA duplex (19OR), protein:DNA 1:1, 0.1 M PCB buffer pH 5.0, 25% PEG 3350, 10 mM spermidine, microseeding; 3.0 Å, space group C2.
Data set [2] has as its target T1, C.Esp1396I controller protein (plasmid pEsp1396I (type II RM system …, UniProt Q8GGH0 1-79)).
T1 sequence: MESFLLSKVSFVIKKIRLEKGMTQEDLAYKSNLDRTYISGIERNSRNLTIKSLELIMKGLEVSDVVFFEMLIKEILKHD
The data set can be described thus: X-ray crystallography; dimer bound at OL via HTH, OR half unbound; 10 mM spermidine, protein:DNA 2:1; Crystallization by vapour diffusion: 19OR 0.1 M PCB buffer pH 5.0, 25% PEG 3350, 10 mM spermidine (microseeded); 25OL 0.1 M PCB pH 4.0, 20% PEG 1500, 10 mM spermidine; temperature not stated. Conditions: protein: recombinant; tags: N-terminal His6 removed with thrombin; chain copies: 2; (called 25 bp, but printed strand has 24 nt).

B1: controller protein C.Esp1396I (natural protein)
chain: T1 sequence
notes: controller protein (C-protein) of the plasmid-borne type II restriction-modification system Esp1396I; 'native C.Esp1396I'; Homodimer; The His tag was removed with thrombin before crystallisation; In both crystals the dimer stands together with a DNA duplex (19 bp OR or 25 bp OL plus half of OR); also called C-protein; not shown: His6, N-terminal, cleaved
Regarding B1, the binding result in data set [1] is recorded as “binds”.

B2: 25OL (dsDNA)
DNA 1: ATGTGACTTATAGTCGTGTGATTA
DNA 2: TAATCACACGACTATAAGTCACAT
B2: the binding result in data set [2] is reported as “binds”.
